Here are results for one substance from patent US6106823.

In the assay the target is CD3 (human).

Turning to anti-CD3 mAb SPV-T3b (antibody), the lymphokine production (IL-2, ng/ml) by T cell clone 827 with CD3 + TPA is 10.6 ng/mL.
